Measured values as given in IntAct's records for PubMed 25910212.

B1: Beta-crystallin B1 (Homo sapiens), P53674 (parent)
chain: MSQAAKASASATVAVNPGPDTKGKGAPPAGTSPSPGTTLAPTTVPITSAKAAELPPGNYRLVVFELENFQGRRAEFSGECSNLADRGFDRVRSIIVSAGPWVAFEQSNFRGEMFILEKGEYPRWNTWSSSYRSDRLMSFRPIKMDAQEHKISLFEGANFKGNTIEIQGDDAPSLWVYGFSDRVGSVKVSSGTWVGYQYPGYRGYQYLLEPGDFRHWNEWGAFQPQMQSLRRLRDKQWHLEGSFPVLATEPPK
partner: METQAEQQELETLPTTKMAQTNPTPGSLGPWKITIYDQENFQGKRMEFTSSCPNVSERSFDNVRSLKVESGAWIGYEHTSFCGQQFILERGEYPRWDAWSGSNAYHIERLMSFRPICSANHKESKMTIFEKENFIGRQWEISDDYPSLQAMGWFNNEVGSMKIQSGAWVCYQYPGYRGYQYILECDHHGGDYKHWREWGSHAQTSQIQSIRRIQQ
B2: ATP synthase mitochondrial F1 complex assembly factor 2 (Homo sapiens), Q8N5M1 (parent)
chain: MWRSCLRLRDGGRRLLNRPAGGPSASMSPGPTIPSPARAYAPPTERKRFYQNVSITQGEGGFEINLDHRKLKTPQAKLFTVPSEALAIAVATEWDSQQDTIKYYTMHLTTLCNTSLDNPTQRNKDQLIRAAVKFLDTDTICYRVEEPETLVELQRNEWDPIIEWAEKRYGVEISSSTSIMGPSIPAKTREVLVSHLASYNTWALQGIEFVAAQLKSMVLTLGLIDLRLTVEQAVLLSRLEEEYQIQKWGNIEWAHDYELQELRARTAAGTLFIHLCSESTTVKHKLLKE
partner: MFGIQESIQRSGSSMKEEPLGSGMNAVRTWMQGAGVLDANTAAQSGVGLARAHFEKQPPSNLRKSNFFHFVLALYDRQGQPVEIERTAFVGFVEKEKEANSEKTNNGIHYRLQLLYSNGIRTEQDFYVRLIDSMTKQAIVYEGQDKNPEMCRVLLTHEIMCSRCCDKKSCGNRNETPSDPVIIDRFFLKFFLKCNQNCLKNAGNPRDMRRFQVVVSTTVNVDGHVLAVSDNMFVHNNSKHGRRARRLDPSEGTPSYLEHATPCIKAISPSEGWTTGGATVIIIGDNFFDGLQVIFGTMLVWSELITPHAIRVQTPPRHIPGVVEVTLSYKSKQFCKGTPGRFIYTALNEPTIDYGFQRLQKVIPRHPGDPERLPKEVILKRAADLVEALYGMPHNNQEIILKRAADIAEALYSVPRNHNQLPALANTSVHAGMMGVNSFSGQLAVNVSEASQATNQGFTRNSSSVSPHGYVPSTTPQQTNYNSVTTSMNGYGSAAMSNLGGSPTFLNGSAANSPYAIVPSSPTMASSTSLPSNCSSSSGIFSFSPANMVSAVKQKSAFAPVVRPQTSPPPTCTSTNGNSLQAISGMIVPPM
B3: Caspase-10 (Homo sapiens), Q92851-4 (parent)
chain: MKSQGQHWYSSSDKNCKVSFREKLLIIDSNLGVQDVENLKFLCIGLVPNKKLEKSSSASDVFEHLLAEDLLSEEDPFFLAELLYIIRQKKLLQHLNCTKEEVERLLPTRQRVSLFRNLLYELSEGIDSENLKDMIFLLKDSLPKTEMTSLSFLAFLEKQGKIDEDNLTCLEDLCKTVVPKLLRNIEKYKREKAIQIVTPPVDKEAESYQGEEELVSQTDVKTFLEALPQESWQNKHAGSNGNRATNGAPSLVSRGMQGASANTLNSETSTKRAAVYRMNRNHRGLCVIVNNHSFTSLKDRQGTHKDAEILSHVFQWLGFTVHIHNNVTKVEMEMVLQKQKCNPAHADGDCFVFCILTHGRFGAVYSSDEALIPIREIMSHFTALQCPRLAEKPKLFFIQACQGEEIQPSVSIEADALNPEQAPTSLQDSIPAEADFLLGLATVPGYVSFRHVEEGSWYIQSLCNHLKKLVPRHEDILSILTAVNDDVSRRVDKQGTKKQMPQPAFTLRKKLVFPVPLDALSL
B4: Alpha-crystallin B chain (Homo sapiens), P02511 (parent)
chain: MDIAIHHPWIRRPFFPFHSPSRLFDQFFGEHLLESDLFPTSTSLSPFYLRPPSFLRAPSWFDTGLSEMRLEKDRFSVNLDVKHFSPEELKVKVLGDVIEVHGKHEERQDEHGFISREFHRKYRIPADVDPLTITSSLSSDGVLTVNGPRKQVSGPERTIPITREEKPAVTAAPKK
partner: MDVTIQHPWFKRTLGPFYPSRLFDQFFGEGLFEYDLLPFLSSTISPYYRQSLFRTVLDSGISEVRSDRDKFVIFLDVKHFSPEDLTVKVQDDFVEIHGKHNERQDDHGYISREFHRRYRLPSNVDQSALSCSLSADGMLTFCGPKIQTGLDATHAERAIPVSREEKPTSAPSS
B5: U4/U6 small nuclear ribonucleoprotein Prp31 (Homo sapiens), Q8WWY3 (parent)
chain: MSLADELLADLEEAAEEEEGGSYGEEEEEPAIEDVQEETQLDLSGDSVKTIAKLWDSKMFAEIMMKIEEYISKQAKASEVMGPVEAAPEYRVIVDANNLTVEIENELNIIHKFIRDKYSKRFPELESLVPNALDYIRTVKELGNSLDKCKNNENLQQILTNATIMVVSVTASTTQGQQLSEEELERLEEACDMALELNASKHRIYEYVESRMSFIAPNLSIIIGASTAAKIMGVAGGLTNLSKMPACNIMLLGAQRKTLSGFSSTSVLPHTGYIYHSDIVQSLPPDLRRKAARLVAAKCTLAARVDSFHESTEGKVGYELKDEIERKFDKWQEPPPVKQVKPLPAPLDGQRKKRGGRRYRKMKERLGLTEIRKQANRMSFGEIEEDAYQEDLGFSLGHLGKSGSGRVRQTQVNEATKARISKTLQRTLQKQSVVYGGKSTIRDRSSGTASSVAFTPLQGLEIVNPQAAEKKVAEANQKYFSSMAEFLKVKGEKSGLMST
partner: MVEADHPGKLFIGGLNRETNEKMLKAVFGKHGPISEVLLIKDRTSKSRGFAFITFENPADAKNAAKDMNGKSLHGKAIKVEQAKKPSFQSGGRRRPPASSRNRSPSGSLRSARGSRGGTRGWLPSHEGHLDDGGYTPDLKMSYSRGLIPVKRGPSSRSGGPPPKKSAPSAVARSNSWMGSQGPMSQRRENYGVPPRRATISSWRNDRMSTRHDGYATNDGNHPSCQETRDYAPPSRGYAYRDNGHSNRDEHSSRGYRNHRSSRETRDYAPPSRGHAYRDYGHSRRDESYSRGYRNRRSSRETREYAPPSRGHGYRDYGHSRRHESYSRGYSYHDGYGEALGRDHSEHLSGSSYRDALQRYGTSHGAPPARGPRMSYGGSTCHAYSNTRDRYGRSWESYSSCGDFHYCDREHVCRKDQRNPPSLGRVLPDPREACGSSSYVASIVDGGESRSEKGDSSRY
B6: 2'-5'-oligoadenylate synthase 1 (Homo sapiens), P00973-2 (parent)
chain: MMDLRNTPAKSLDKFIEDYLLPDTCFRMQINHAIDIICGFLKERCFRGSSYPVCVSKVVKGGSSGKGTTLRGRSDADLVVFLSPLTTFQDQLNRRGEFIQEIRRQLEACQRERAFSVKFEVQAPRWGNPRALSFVLSSLQLGEGVEFDVLPAFDALGQLTGGYKPNPQIYVKLIEECTDLQKEGEFSTCFTELQRDFLKQRPTKLKSLIRLVKHWYQNCKKKLGKLPPQYALELLTVYAWERGSMKTHFNTAQGFRTVLELVINYQQLCIYWTKYYDFKNPIIEKYLRRQLTKPRPVILDPADPTGNLGGGDPKGWRQLAQEAEAWLNYPCFKNWDGSPVSSWILLVRPPASSLPFIPAPLHEA

Variants of: B1
Conditions: with crba1_human CRYBA1, P05813

Question: How did the “effect of a mutation on the interaction” value turn out when S228P was run?
Answer: disrupting interaction strength

Variants of: B2
Conditions: with coe1_human EBF1, Q9UH73

Question: Which “effect of a mutation on the interaction” value does the source give for W94R here?
Answer: disrupting interaction strength

Variants of: B3
Conditions: with xiap_human XIAP

Question: V410I was tested. Which “effect of a mutation on the interaction” value did it give?
Answer: disrupting interaction strength

Question: For P501L, which “effect of a mutation on the interaction” value is on record?
Answer: disrupting interaction strength

Variants of: B4
Conditions: with cryaa_human CRYAA

Question: With R120G as the variant, how does the “effect of a mutation on the interaction” value read?
Answer: with no effect

Question: P20S was tested. Which “effect of a mutation on the interaction” value did it give?
Answer: with no effect

Question: Which “effect of a mutation on the interaction” value does the source give for D140N here?
Answer: with no effect

Question: With R56W as the variant, how does the “effect of a mutation on the interaction” value read?
Answer: with no effect

Variants of: B5
Conditions: with RBMY1A1, P0DJD3-2

Question: Which “effect of a mutation on the interaction” value does the source give for L107V here?
Answer: with no effect

Variants of: B6
Conditions: with exoc5_human EXOC5, O00471
Sequence of exoc5_human EXOC5, O00471 (O00471 whole entry): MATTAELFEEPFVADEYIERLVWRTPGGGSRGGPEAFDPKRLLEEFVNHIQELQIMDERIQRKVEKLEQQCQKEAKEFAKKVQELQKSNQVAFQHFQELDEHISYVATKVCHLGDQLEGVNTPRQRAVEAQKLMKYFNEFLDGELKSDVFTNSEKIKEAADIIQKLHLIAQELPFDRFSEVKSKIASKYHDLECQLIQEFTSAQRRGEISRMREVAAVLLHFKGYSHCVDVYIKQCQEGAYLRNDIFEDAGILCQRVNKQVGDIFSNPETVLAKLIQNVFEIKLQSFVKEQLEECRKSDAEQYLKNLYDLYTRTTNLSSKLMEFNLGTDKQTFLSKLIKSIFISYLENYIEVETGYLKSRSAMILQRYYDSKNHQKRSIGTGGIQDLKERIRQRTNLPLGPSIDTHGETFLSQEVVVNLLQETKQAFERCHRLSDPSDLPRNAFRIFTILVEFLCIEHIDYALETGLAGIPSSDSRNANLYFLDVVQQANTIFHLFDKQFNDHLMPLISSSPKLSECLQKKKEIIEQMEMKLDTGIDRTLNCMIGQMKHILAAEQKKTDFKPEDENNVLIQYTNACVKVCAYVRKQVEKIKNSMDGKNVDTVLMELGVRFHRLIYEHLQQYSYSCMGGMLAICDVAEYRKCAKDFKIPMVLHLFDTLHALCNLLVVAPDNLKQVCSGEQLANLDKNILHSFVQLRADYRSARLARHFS

Question: With R242Q as the variant, how does the “effect of a mutation on the interaction” value read?
Answer: with no effect

Variants of: B6
Conditions: with actn1_human ACTN1, P12814
Sequence of actn1_human ACTN1, P12814 (P12814 whole entry): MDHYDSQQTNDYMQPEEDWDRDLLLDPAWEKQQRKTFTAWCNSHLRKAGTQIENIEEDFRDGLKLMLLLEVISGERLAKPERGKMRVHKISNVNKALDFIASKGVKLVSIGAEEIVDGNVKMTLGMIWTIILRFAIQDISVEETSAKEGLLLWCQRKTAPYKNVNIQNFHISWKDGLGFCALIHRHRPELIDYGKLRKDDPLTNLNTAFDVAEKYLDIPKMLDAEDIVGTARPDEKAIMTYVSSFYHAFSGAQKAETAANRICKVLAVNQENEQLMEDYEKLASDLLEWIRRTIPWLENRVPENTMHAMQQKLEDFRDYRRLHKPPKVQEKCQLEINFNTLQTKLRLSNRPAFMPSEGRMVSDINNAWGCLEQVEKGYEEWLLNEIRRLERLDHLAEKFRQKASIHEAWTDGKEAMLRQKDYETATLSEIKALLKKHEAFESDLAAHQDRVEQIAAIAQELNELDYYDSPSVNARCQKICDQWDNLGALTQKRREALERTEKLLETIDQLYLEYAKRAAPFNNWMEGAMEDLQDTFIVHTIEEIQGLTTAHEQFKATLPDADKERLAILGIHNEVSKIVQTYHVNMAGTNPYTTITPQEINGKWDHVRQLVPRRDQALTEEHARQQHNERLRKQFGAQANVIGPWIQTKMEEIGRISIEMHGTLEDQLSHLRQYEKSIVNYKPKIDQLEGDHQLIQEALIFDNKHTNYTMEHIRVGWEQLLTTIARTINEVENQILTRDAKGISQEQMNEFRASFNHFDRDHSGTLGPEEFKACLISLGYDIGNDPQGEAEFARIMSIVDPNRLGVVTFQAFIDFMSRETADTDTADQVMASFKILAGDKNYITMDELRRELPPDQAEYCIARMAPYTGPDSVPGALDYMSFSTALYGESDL

Question: R242Q was tested. Which “effect of a mutation on the interaction” value did it give?
Answer: with no effect
